The values below come from patent publication US20090233993A1, “COMPOSITIONS AND METHODS FOR INHIBITING GSK3 ACTIVITY AND USES THEREOF” (Burnham Institute for Medical Research, priority 2008, published 2009).

Entries after “also recorded” stand apart in the source; their conditions may differ.

In one assay the test system is β-secretase (BACE1). The experiment in a line: β-secretase (BACE1) in vitro activity and protein level in FG01-overexpressing cells. Type of assay: cell-based, mouse. How it is done: The in vitro activity of β-secretase (BACE1) was assayed using a commercial kit (Calbiochem), following the manufacturer's protocol.
To determine whether FG01 reduces Aβ generation by modulating β-secretase activities, β-secretase (BACE1) activity and the protein level of BACE1 in vitro in FG01-overexpressing cells was examined and both were unchanged. FG01 cell clones identified by RHKO were treated with DMSO (control) or 2 μg/ml doxycycline for 72 hrs. In some experiments, N2a cells were transfected with control vector (Con) or FG01 vector for 48 hrs. Cell lysates were assayed for β-secretase activity. FG01 was transfected into N2a cells and equal protein lysates were subjected to SDS-PAGE and Western blot with antibodies against BACE1 (Yan et al., 2001), nicastrin (Leem et al., 2002) or Myc. APP βCTF accumulation can also be attributed to a decrease in γ-secretase-mediated cleavage.

A further assay deals with γ-secretase. The experiment in a line: γ-secretase cleavage on Notch (NICD generation) and nicastrin level. It is filed as cell-based, mouse. From the text:
The levels of the recombinant Notch (NotchΔE with Myc-tag) and the γ-secretase cleaved Notch fragment (NICD) were quantified by Western blotting using myc antibody and an antibody specific to processed Notch followed by densitometry. […] The results represent at least four independent experiments.
N2a cells were transfected with Myc-tagged Notch1 NΔE construct lacking the ectodomain, which allows ligand-independent processing by γ-secretase to produce NICD (Schroeter et al., 1998). NICD generation was analyzed by immunoblot with an antibody specifically recognizing the cleaved Notch product NICD (Cell Signaling Technology).
Cleavage of Notch, another important γ-secretase substrate (Kopan and Goate, 2000), was not altered by FG01 overexpression. N2a cells were transfected with Myc-tagged Notch1 NΔE construct. After equal splitting, cells were transfected with control vector (Con) or FG01. Cell lysates were subjected to SDS-PAGE and Western blot with the Myc antibody (recognizing both exogenous FG01 and Notch NΔE) and with an NICD-specific antibody. Protein levels of nicastrin, an important component of the γ-secretase complex, were also not affected by FG01 overexpression.

The subject of the next assay is CDK5. Put plainly: CDK5 protein level and in vitro activity in N2a cells. Type of assay: cell-based, mouse. The settings on record: FG01 overexpression. On the procedure:
The in vitro activity of CDK5 was assayed as described (Han et al., 2005). Briefly, CDK5 protein was immunoprecipitated and incubated with histone-H1 in [γ-^32P]ATP-containing buffer. After reaction termination, samples were subjected to SDS-PAGE and autoradiography. Results were quantified using a PhosphoImager (Molecular Dynamics).
GSK-3 is a major kinase that phosphorylates tau in AD (Flaherty et al., 2000). […] N2aSwe cells were cotransfected with the human tau splice variant T40 and with FG01 (or control vectors), and examined tau phosphorylation at the threonine 205 site (Thr205) and the PHF-1 tau epitope sites (serine 396 and serine 404), which are GSK-3 phosphorylation targets, and at the major paired helical filament (PHF) sites found in NFTs. […] Protein levels and activity of CDK5, another kinase mediating tau phosphorylation in AD (Flaherty et al., 2000), was analyzed following FG01 overexpression. […] N2a cells were transfected with FG01 or a control vector (Con). Equal cell lysate proteins were used for assaying in vitro CDK5 activity.

Another assay relates to cAMP levels. Put plainly: cAMP assay in rat PC12 cells. The settings on record: FG01 overexpression. It is filed as cell-based. On the procedure: Commercial kits were used to assay in vitro activities of GSK-3β (Sigma) and PKA (Upstate). For GSK-3α activity, a commercial GSK-3β activity assay kit was used but the procedure to immunoprecititate GSK-3β was replaced with immunoprecipitation of GSK-3α using an anti-GSK-3α antibody (Cell Signaling). cAMP levels were assayed using a commercial kit (Biovision).
In general terms: cAMP levels reflect the balance of adenylyl cyclase and phosphodiesterase activity.

For the next assay, the system named is 3×Tg AD mice. Put plainly: FG01 transgenic mice crossed with triple transgenic (3×Tg) AD mice, brain analysis. It is filed as in vivo, mouse. From the text:
Brain-specific FG01 transgenic mice were generated using a FG01 expression cassette. FG01 has an N-terminal Myc tag and is driven by the human Thy-1 promoter for neuron-specific expression. A SV40 polyA fragment is linked at the 3′ end for enhancing expression. Genotyping P5 primer was complementary to hThy1 sequence. Genotyping P3 primer was complementary to SV40/Poly A sequence. Reverse transcription primer RT-P5 was complementary to sequence on the 5′ side of the FG01 sequence. Hemizygous FG01 transgenic mice were crossed with homozygous triple transgenic (3×Tg) AD mice harboring mutations in human APP and tau genes on a presenilin 1 (PS1) mutant background (Oddo et al., 2003). Procedures involving animals and their care conformed to institutional guidelines (Animal Resources Department at Burnham Institute for Medical Research).
FG01/3×Tg mice and littermate controls on a 3×Tg background were sacrificed at 11 months of age. Half of the brain was used for immunoblot analysis and the other half was paraffin-embedded for immunohistochemistry. Sagittal brain sections (4 μm) were deparaffinized, hydrated, and then immunostained with anti-Aβ antibody (6E10), anti-phosphorylated tau antibody (PHF-1), or anti-synapsin antibody. After additional incubation with biotinylated secondary antibody, samples were incubated in ABC Elite (HRP) reagent (Vector Laboratories). Reactions were visualized by developing in DAB substrates (Vector Laboratories). All samples were visualized under a light microscope.
FG01 transgenic mice were crossed with triple transgenic (3×Tg) AD mice harboring mutations in human APP, tau and presenilin 1 (PS1) genes (Oddo et al., 2003).

For the next assay, the system named is Aβ generation. The experiment in a line: Aβ generation / APP processing in N2aSwe cells overexpressing FG01 (IP-Western blot). Type of assay: cell-based, mouse. On the procedure: To investigate FG01's effects on Aβ generation, the His6-tagged recombinant FG01 was overexpressed in N2aSwe cells. The levels of βCTF, APP, sAPPα and secreted and intracellular Aβ were then quantified in the transfected cells and compared to those parental cells.
The His6-tagged FG01 was overexpressed in N2aSwe cells. The secreted and intracellular Aβ were immunoprecipitated by 4G8. The precipitated peptides and sAPPα, βCTF, full length APP and FG01 were analyzed by Western blots. α-tubulin was used as loading control. The levels of the proteins were quantified by densitometry and normalized and compared to those in vector transfected control.
To corroborate this, FG01 was over expressed in N2aSwe cells.
For orientation: In western blotting, separated proteins are transferred to a membrane and probed.

[1] abbreviates: FG01/3×Tg vs 3×Tg littermates, 11 months.
The mark [2] stands for this setting: FG01 overexpression in N2aSwe cells.

B1: FG01: 141 amino acid transmembrane protein encoded by mouse retrogene fg01 (SEQ ID NO:2); expressed from transfected vector or transgene (protein)
chain: MQSQQRNIGYFNHLKADSRNITYSMTFSTKSSNQNFIIFLNEVQAAIIGHERCDLLPVLNELHPDALPDGRIWLFGLNPYFFQHNSLCMRGTPKRIGLQGCAQVGFLVLFVMPLLIPSVTAELPGSSETTTLAHLAGATGP
modifications: Myc and His6 tags; homo sapien
notes: expressed from transfected vector or transgene
For the molecule B1, in the assay on β-secretase (BACE1) (FG01-overexpressing N2a cells, Western blot), the “protein level of BACE1” value is “unchanged”. The “β-secretase (BACE1) activity” value in the assay on β-secretase (BACE1) (in vitro assay, FG01-overexpressing cells) is recorded as “did not significantly change; also recorded: unchanged”. The “protein levels of nicastrin” value with γ-secretase (FG01 overexpression in N2a cells) is “not affected”. Further, the Notch cleavage result with γ-secretase (Notch ΔE cotransfected with FG01) is listed as “not altered”. In the assay on CDK5, the “CDK5 in vitro activity” value is given as “Little change” and the CDK5 protein level result is “Little change”. For the same molecule, the “increase of cAMP levels” value in the assay on cAMP levels amounted to 75%. For the same molecule, the “levels of the synaptic marker PSD-95” value with 3×Tg AD mice (3×Tg mouse brains with FG01 overexpression) was “markedly increased”. Further, in the assay on 3×Tg AD mice (setting [1]), the “Aβ generation in brain” value is listed as “reduced”, the “GSK-3 activity in brain” value is “reduced”, the “PKA activity in brain” value is reported as “dramatically increased” and the “tau phosphorylation in brain” value is on record as “reduced”. Further, the “number of Aβ-immunostaining-positive neurons” value in the assay with 3×Tg AD mice (hippocampus and cortex, immunohistochemistry 6E10) was “significantly decreased”. In addition, the “number of phosphorylated tau-immunostaining-positive neurons” value in the assay on 3×Tg AD mice (hippocampus and cortex, immunohistochemistry PHF-1) is “significantly decreased”. Also, the synapsin immunostaining result with 3×Tg AD mice (hippocampus, vs 3×Tg mice without FG01) is reported as “much higher immunoreactivity”. Further, the “Aβ production in the presence of lithium” value with Aβ generation (FG01-transfected N2aSwe cells, 5 mM LiCl 4 hrs) is listed as “could not further reduce”. For the same molecule, in the assay on Aβ generation (setting [2]), the “levels of extracellular and intracellular Aβ” value is given as “dramatically reduced”; the “levels of total APP” value is listed as “not affected”; the sAPPα level result is on record as “stimulated; also recorded: greatly increased”; the βCTF level result is on record as “greatly accumulated; also recorded: greatly increased”. For the same molecule, the “levels of secreted and intracellular Aβ, reduction” value in the assay with Aβ generation (His6-tagged FG01 overexpressed in N2aSwe cells vs control, Aβ40 and 42 equally reduced) was “more than 50%”. For the same molecule, in the assay on Aβ generation (N2a/swe cells pretreated with 5 mM LiCl for 24 hrs before FG01 transfection), the “Aβ levels in LiCl-pretreated cells” value is listed as “did not further decrease”.
